Legend:
[1] = biological target: T1, RevU (LuxR family transcriptional regulator) (Actinacidiphila reveromycinica, UniProt G1UDV5); experiment: SPR (Biacore T200, His6-RevU immobilized on NTA chip); supported by BR-1 bead pull-down with free BR-1 competition; assay type: binding
T1 construct: purified His6-tagged RevU expressed in E. coli from a codon-optimized synthetic gene

[2] = biological target: T2, RevU (LuxR family regulator), His6-tagged (Streptomyces sp. SN-593 (S. …, UniProt G1UDV5)); experiment: SPR; no BR-1; SPR: 10 mM HEPES pH 7.4, 3 mM EDTA, 150 mM NaCl, 0.05% Tween-20, 25 C, RevU 3.9-250 nM; BLI: 10 mM HEPES pH 7.3, 3 mM EDTA, 150 mM NaCl, 0.05% Tween-20, room temperature; details: protein: recombinant; tags: His6 (pColdI); chain copies: 2; label: 5'-biotin; blunt
T2 sequence: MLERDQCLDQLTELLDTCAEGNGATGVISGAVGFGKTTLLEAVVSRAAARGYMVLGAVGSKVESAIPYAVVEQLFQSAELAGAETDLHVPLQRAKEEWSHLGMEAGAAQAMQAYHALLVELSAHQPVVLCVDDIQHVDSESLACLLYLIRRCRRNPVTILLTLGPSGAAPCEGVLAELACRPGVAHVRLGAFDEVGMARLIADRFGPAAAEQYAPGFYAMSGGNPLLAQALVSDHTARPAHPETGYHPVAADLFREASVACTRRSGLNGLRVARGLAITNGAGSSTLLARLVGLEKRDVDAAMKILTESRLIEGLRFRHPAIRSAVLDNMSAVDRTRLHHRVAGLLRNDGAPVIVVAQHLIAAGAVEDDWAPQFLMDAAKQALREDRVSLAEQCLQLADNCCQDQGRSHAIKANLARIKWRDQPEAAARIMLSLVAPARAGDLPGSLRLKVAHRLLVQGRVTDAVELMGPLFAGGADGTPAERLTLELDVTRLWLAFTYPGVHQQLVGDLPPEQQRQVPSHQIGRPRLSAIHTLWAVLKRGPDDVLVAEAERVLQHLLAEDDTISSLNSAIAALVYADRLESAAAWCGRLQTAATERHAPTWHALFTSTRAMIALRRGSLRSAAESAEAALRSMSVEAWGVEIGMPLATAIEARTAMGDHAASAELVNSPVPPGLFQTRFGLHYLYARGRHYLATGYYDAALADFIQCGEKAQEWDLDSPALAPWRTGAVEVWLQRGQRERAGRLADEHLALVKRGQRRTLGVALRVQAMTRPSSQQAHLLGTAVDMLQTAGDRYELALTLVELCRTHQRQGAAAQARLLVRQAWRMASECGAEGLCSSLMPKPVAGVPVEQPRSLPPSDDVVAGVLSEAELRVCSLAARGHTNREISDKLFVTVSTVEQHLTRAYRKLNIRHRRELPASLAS

[3] = biological target: T2, RevU (LuxR family regulator), …; experiment: SPR; compound 3 (tetrahydro BR-1), 125 nM RevU; not enhanced; SPR: 10 mM HEPES pH 7.4, 3 mM EDTA, 150 mM NaCl, 0.05% Tween-20, 25 C, RevU 3.9-250 nM; BLI: 10 mM HEPES pH 7.3, 3 mM EDTA, 150 mM NaCl, 0.05% Tween-20, room temperature; details: protein: recombinant; tags: His6 (pColdI); chain copies: 2; label: 5'-biotin; blunt

NC(=O)c1cc2c([nH]c3ccccc32)c(-c2ccccc2)n1 [compound 1, BR-1]
Kd [1]: 1310 nM

B1: Fragment 4 (dsDNA)
DNA 1: GATTATGCGTCGCATTCGGTGTTTGTGGAGTTGATCGAGGATCGGGTTCT
DNA 2: AGAACCCGATCCTCGATCAACTCCACAAACACCGAATGCGACGCATAATC
binding result [2]: binds

B2: Fragment 1-1 (dsDNA)
DNA 1: ACGCCGCAACGACCAACAGAGG
DNA 2: CCTCTGTTGGTCGTTGCGGCGT
binding result [3]: binds

Source: publication PMC7311520, “β-carboline chemical signals induce reveromycin production through a LuxR family regulator in Streptomyces sp. SN-593” (Scientific Reports, 2020)
